{"source": "IntAct's records for PubMed 19040637", "parents": {"B1": {"name": "Probable glutaredoxin slr1562 (Synechocystis sp. (strain PCC 6803 / Kazusa)), P74593 (parent)", "chain": "MANLFNWLPLLSGRQADGIKAKVEIYTWQTCPFCIRAKLLLWWKGVKFIEYKIDGDDQARQAMAARAEGRRTVPQIFVNDQGIGGCDQLYGLDSRGQLDPLLATPPNPA", "partner": "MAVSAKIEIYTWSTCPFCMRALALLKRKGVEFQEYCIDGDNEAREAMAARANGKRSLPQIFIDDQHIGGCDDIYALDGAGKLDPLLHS"}, "B2": {"name": "Probable glutaredoxin ssr2061 (Synechocystis sp. (strain PCC 6803 / Kazusa)), P73492 (parent)", "chain": "B1 partner", "partner": "B1 chain"}}}
{"variants_of": "B1", "settings": "with glrx2_syny3 glrx2, P73492"}
{"variant": "C86S", "effect of a mutation on the interaction": "disrupting interaction strength"}
{"variant": "C34S", "effect of a mutation on the interaction": "disrupting interaction strength"}
{"variant": "C31S", "effect of a mutation on the interaction": "decreasing interaction strength"}
{"variants_of": "B2", "settings": "with glrx1_syny3 glrx1, P74593"}
{"variant": "L22K", "effect of a mutation on the interaction": "decreasing interaction strength"}
{"variant": "C36S", "effect of a mutation on the interaction": "decreasing interaction strength"}
{"variant": "C18S", "effect of a mutation on the interaction": "decreasing interaction strength"}
